Columns and labels:
[1] = target: T1, Human P-cadherin on cells (human, UniProt P22223 108-829); experiment: FACS on DU-145 cells
T1 construct: whole, on cells; Endogenous P-cadherin on tumour cell lines; also called hPro1
Protocol: (§1) Binding of the test antibodies to P-cadherin expressed on cells was determined by flow cytometry analysis. […] 1×10⁵ cells/well (100 μL) were added to each well of a 96-well U-plate (Corning, #3799) and centrifuged at 1500 rpm (Eppendorf, #5810R) for 5 minutes before removing the supernatant. Antibodies serially diluted in 1% BSA/1×PBS (Ca+/Mg+) were added at 100 μL/well to the pelleted cells and incubated at 4° C. for 1 hour. Anon-related hIgG1 antibody was used as an isotype control. Cells were washed two times with 180 μL/well of 1% BSA/1×PBS (Ca+/Mg+) by centrifugation at 1500 rpm for 5 minutes at 4° C. Pelleted cells were resuspended in 100 μL/well Alexa647 conjugated Goat anti-human IgG Fc (Jackson, #109-605-098) 1:500 diluted in 1% BSA/1×PBS (Ca+/Mg+) for 30 minutes at 4° C. in the dark. Cells were then washed two times as described above. After the final wash, cells were resuspended in 100 μL 1% BSA/1×PBS (Ca+/Mg+) and fluorescence values were measured with a FACS Canto II cytometer (BD Biosciences). The amount of cell surface bound anti-P-cadherin antibody was assessed by measuring the mean fluorescence (MFI). The FACS raw data were analyzed by FlowJo software, wells containing no antibody or secondary antibody only were used to establish background fluorescence. Binding EC50 values were obtained by the four-parameter non-linear regression analysis using GraphPad Prism6 software.

[2] = target: T1, Human P-cadherin on cells; experiment: FACS on DU-145 cells; remark: listed apart in the source
Protocol: as §1

[3] = target: T1, Human P-cadherin on cells; experiment: FACS on HCT-116 cells
Protocol: as §1
Binding of the antibodies to human P-cadherin expressed on cells was determined by flow cytometry analysis.

[4] = target: T1, Human P-cadherin on cells; experiment: cell-based or functional assay
[5] = target: T1, Human P-cadherin on cells; experiment: cell-based or functional assay; remark: listed apart in the source

T1 sequence (P22223 108-829): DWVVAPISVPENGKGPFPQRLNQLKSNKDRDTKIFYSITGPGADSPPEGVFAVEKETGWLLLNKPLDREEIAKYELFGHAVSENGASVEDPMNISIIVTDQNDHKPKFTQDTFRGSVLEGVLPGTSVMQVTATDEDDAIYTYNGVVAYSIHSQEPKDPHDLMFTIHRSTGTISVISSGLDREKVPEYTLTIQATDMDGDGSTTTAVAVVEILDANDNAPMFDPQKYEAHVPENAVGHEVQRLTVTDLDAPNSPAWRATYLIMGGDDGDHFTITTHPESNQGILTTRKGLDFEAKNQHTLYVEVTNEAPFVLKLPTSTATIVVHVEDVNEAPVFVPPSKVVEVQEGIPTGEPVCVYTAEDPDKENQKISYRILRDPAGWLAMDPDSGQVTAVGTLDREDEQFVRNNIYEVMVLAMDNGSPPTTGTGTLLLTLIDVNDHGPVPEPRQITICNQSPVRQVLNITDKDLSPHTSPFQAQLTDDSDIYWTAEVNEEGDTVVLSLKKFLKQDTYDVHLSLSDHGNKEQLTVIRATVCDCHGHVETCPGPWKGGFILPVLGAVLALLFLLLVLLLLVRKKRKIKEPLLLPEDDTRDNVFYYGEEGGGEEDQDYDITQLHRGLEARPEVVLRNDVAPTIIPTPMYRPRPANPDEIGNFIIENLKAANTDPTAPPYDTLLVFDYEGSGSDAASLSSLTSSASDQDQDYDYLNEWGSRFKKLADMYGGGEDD

Row | Binder | EC50 [1] | Max MFI [1] | EC50 [2] | Max MFI [2] | EC50 [3] | Max MFI [3] | internalization, Fab-ZAP on HCC-1954, IC50 [4] | internalization, Fab-ZAP on HCC-1954, Max Inh % [4] | internalization, Fab-ZAP CTG assay on HCC-1954, IC50 [5]
1 | W3195-1.53.1-uIgG1L (antibody, Fully human IgG1 from an OmniRat hybridoma, converted to human IgG1; also called parental antibody; parental mAb) heavy: not shown light: SYELTQPPSVSVSPGQTANITCSGDKLGDKFASWYQQKSGQSPVVVIYQDNKRPSGFPERFSGSNSGNTATLTISGTQAMDEADYYCQAWDSSIVVFGGGTKLTVLGQPKAAPSVTLFPPSSEELQANKATLVCLISDFYPGAVTVAWKADSSPVKAGVETTTPSKQSNNKYAASSYLSLTPEQWKSHRSYSCQVTHEGSTVEKTVAPTECS | 0.05 nM | 2090 |  |  |  |  |  |  | 
2 | W3195-1.53.1-p4-uIgG1LV320 (antibody, V domains shown, V320 = IgG1 Fc with L234A/L235A; also called W3195-1.53.1-p4-uIgG1V320; W3195-p4-V320 antibody) VH: QVQLQESGPGLVKPSETLSLTCTVSGGSVISDNYYWTWVRQPPGKGLEFIGYIYYRGSTNYNPSLKNRVIISIDTSRNQFSLDLNSVTAADTAVYYCARDRRTGNALPFDNWGQGTLVTVSS VL: SYELTQPPSVSVSPGQTAQITCSGDKLGDKFASWYQQKSGQSPVVVIYQDNKRPSGFPERFSGSNSGNTATLTISGTQAMDEADYYCQAWDSSIVVFGGGTKLTVLG |  |  | 0.12 nM | 2160 | 0.14 nM | 4190 | 0.063 nM | 80% | 
3 | W3195-1.53.1-p3-uIgG1L (antibody, also called W3195-p3 antibody) heavy: not shown light: SYELTQPPSVSVSPGQTANIACSGDKLGDKFASWYQQKSGQSPVVVIYQDNKRPSGFPERFSGSNSGNTATLTISGTQAMDEADYYCQAWDSSIVVFGGGTKLTVLGQPKAAPSVTLFPPSSEELQANKATLVCLISDFYPGAVTVAWKADSSPVKAGVETTTPSKQSNNKYAASSYLSLTPEQWKSHRSYSCQVTHEGSTVEKTVAPTECS | 0.05 nM | 2140 |  |  |  |  |  |  | 0.02 nM

Further lines, results first:

Row | EC50 [1] | Max MFI [1] | EC50 [2] | Max MFI [2] | EC50 [3] | Max MFI [3] | internalization, Fab-ZAP on HCC-1954, IC50 [4] | internalization, Fab-ZAP on HCC-1954, Max Inh % [4] | internalization, Fab-ZAP CTG assay on HCC-1954, IC50 [5] | Binder
4 |  |  | 0.1 nM | 2290 | 0.14 nM | 4180 | 0.063 nM | 79% |  | W3195-1.53.1-p6-uIgG1LV320 (antibody, V domains shown, also called W3195-1.53.1-p6-uIgG1V320; W3195-p6-V320 antibody) VH: QVQLQESGPGLVKPSETLSLTCTVSGGSVISDNYYWTWVRQPPGKGLEFIGYIYYRGSTNYNPSLKNRVIISIDTSRNQFSLDLNSVTAADTAVYYCARDRRTGTSLPFDNWGQGTLVTVSS VL: SYELTQPPSVSVSPGQTAQITCSGDKLGDKFASWYQQKSGQSPVVVIYQDNKRPSGFPERFSGSNSGNTATLTISGTQAMDEADYYCQAWDSSIVVFGGGTKLTVLG
5 |  |  | 0.12 nM | 2240 | 0.17 nM | 4170 | 0.058 nM | 82% |  | W3195-1.53.1-p5-uIgG1LV320 (antibody, V domains shown, also called W3195-1.53.1-p5-uIgG1V320; W3195-p5-V320 antibody) VH: QVQLQESGPGLVKPSETLSLTCTVSGGSVISDNYYWTWVRQPPGKGLEFIGYIYYRGSTNYNPSLKNRVIISIDTSRNQFSLDLNSVTAADTAVYYCARDRRTGQSLPFDNWGQGTLVTVSS VL: SYELTQPPSVSVSPGQTAQITCSGDKLGDKFASWYQQKSGQSPVVVIYQDNKRPSGFPERFSGSNSGNTATLTISGTQAMDEADYYCQAWDSSIVVFGGGTKLTVLG
6 |  |  | 0.09 nM | 2280 | 0.14 nM | 4230 | 0.059 nM | 79% |  | W3195-1.53.1-p7-uIgG1LV320 (antibody, V domains shown, also called W3195-1.53.1-p7-uIgG1V320; W3195-p7-V320 antibody) VH: QVQLQESGPGLVKPSETLSLTCTVSGGSVISDNYYWTWVRQPPGKGLEFIGYIYYRGSTNYNPSLKNRVIISIDTSRNQFSLDLNSVTAADTAVYYCARDRRTGSSLPFDNWGQGTLVTVSS VL: SYELTQPPSVSVSPGQTAQITCSGDKLGDKFASWYQQKSGQSPVVVIYQDNKRPSGFPERFSGSNSGNTATLTISGTQAMDEADYYCQAWDSSIVVFGGGTKLTVLG

Reference: US20240034786A1 (WUXI BIOLOGICS IRELAND, published 2024)
